Assay results as given in patent US20210246166A1 (Bayer, published 2021).
Numbered stars: 1 amine (or outer) side, 2 acyl side, 3 side chain; on linkers, the order of the positions; unused ones are H or OH. Bridge positions count the residues as written; N and C are the ends. Square brackets hold non-standard residues; d marks the D form. Ends that are not written are not given here. * marks the point of attachment. X11 = (S)‑Piperidine‑3‑carboxylic acid, O=C([C@H]1CCCN([*:1])C1)[*:2]; NH(CH2CH2O)5CH2CO = O=C(COCCOCCOCCOCCOCCN[*:1])[*:2]; Benzoyl(3-COOH) = O=C(O)c1cccc(C(=O)*)c1; Benzoyl(4-COOH) = O=C(O)c1ccc(C(=O)*)cc1; Nip(3R) = O=C([C@@H]1CCCN([*:1])C1)[*:2]; Oic = O=C(O)[C@@H]1C[C@@H]2CCCC[C@@H]2N1; tBuAla = CC(C)(C)C[C@H](N)C(=O)O; PEG4 = NCCOCCOCCOCCOCCC(=O)O; Pen = CC(C)(S)[C@H](N)C(=O)O; PEG3 = NCCOCCOCCOCCC(=O)O; Orn = NCCC[C@H](N)C(=O)O; Sar = CNCC(=O)O

T1: Recombinant human MASP1 enzyme (fragment corresponding to amino acids 297-699, C-terminal His Tag) (human, UniProt P48740 297-699)
T1 sequence: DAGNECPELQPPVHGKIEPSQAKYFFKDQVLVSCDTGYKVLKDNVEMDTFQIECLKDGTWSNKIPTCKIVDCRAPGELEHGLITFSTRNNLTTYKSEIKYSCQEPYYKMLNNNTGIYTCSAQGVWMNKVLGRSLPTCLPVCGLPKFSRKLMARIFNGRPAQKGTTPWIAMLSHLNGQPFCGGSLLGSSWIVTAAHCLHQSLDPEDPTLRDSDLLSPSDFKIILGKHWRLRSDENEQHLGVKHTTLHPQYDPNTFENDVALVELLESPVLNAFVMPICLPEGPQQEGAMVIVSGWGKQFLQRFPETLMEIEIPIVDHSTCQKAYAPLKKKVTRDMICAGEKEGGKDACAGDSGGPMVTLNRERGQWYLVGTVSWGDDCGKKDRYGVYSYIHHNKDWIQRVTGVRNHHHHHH


Legend:
[1] = biological target: Recombinant human MASP2 enzyme (fragment corresponding to amino acids 297-686, C-terminal His Tag) (human, UniProt O00187 297-686); assay: cell-based or functional assay
Sequence of Recombinant human MASP2 enzyme (fragment corresponding to amino acids 297-686, C-terminal His Tag) (O00187 other isoform, or with tags, fused parts or gaps limits assumed): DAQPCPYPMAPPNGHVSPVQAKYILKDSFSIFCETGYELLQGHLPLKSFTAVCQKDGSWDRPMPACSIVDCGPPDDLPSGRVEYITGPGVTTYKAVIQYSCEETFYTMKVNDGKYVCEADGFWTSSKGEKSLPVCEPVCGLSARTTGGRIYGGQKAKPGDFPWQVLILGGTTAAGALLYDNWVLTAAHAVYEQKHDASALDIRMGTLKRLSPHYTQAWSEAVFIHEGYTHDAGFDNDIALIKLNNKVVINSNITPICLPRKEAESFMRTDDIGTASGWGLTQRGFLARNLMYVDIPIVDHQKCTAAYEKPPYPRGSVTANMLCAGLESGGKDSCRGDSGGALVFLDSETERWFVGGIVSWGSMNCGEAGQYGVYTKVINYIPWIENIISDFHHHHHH

[2] = biological target: T1, Recombinant human MASP1 enzyme …; assay: cell-based or functional assay

| human MASP2 IC50 [1] [nM] | human MASP1 IC50 [2] [nM] | Binder |
| --- | --- | --- |
| 110 | 5.2 | [Nip(3R)]ICSRSLP[Oic]I[Pen]IPD-OH (disulfide 3-11; N-terminus assumed; SMILES CC[C@H](C)[C@H](NC(=O)[C@@H]1CCCNC1)C(=O)N[C@H]1CSSC(C)(C)[C@@H](C(=O)N[C@H](C(=O)N2CCC[C@H]2C(=O)N[C@@H](CC(=O)O)C(=O)O)[C@@H](C)CC)NC(=O)[C@H]([C@@H](C)CC)NC(=O)[C@@H]2C[C@@H]3CCCC[C@@H]3N2C(=O)[C@@H]2CCCN2C(=O)[C@H](CC(C)C)NC(=O)[C@H](CO)NC(=O)[C@H](CCCNC(=N)N)NC(=O)[C@H](CO)NC1=O) [((R)-Piperidine-3-Carboxylic Acid)-IC+SRSLP-(Oic)-I-(Pen)+IPD-OH] |
| 48 | 2.35 | [Sar]ICSRSLP[Oic]I[Pen]IPR-OH (disulfide 3-11; N-terminus assumed; SMILES CC[C@H](C)[C@H](NC(=O)CNC)C(=O)N[C@H]1CSSC(C)(C)[C@@H](C(=O)N[C@H](C(=O)N2CCC[C@H]2C(=O)N[C@@H](CCCNC(=N)N)C(=O)O)[C@@H](C)CC)NC(=O)[C@H]([C@@H](C)CC)NC(=O)[C@@H]2C[C@@H]3CCCC[C@@H]3N2C(=O)[C@@H]2CCCN2C(=O)[C@H](CC(C)C)NC(=O)[C@H](CO)NC(=O)[C@H](CCCNC(=N)N)NC(=O)[C@H](CO)NC1=O) [((N-Me)G)-IC+SRSLP-(Oic)-I-(Pen)+IPR-OH] |
| 120 | 3.2 | [Sar]ICSRSLP[Oic]I[Pen]IPY-OH (disulfide 3-11; N-terminus assumed; SMILES CC[C@H](C)[C@H](NC(=O)CNC)C(=O)N[C@H]1CSSC(C)(C)[C@@H](C(=O)N[C@H](C(=O)N2CCC[C@H]2C(=O)N[C@@H](Cc2ccc(O)cc2)C(=O)O)[C@@H](C)CC)NC(=O)[C@H]([C@@H](C)CC)NC(=O)[C@@H]2C[C@@H]3CCCC[C@@H]3N2C(=O)[C@@H]2CCCN2C(=O)[C@H](CC(C)C)NC(=O)[C@H](CO)NC(=O)[C@H](CCCNC(=N)N)NC(=O)[C@H](CO)NC1=O) [((N-Me)G)-IC+SRSLP-(Oic)-I-(Pen)+IPY-OH] |
| 31 | 2 | [Sar]ICSRS[tBuAla]PPI[Pen]IP[NH(CH2CH2O)5CH2CO]-OH (disulfide 3-11; N-terminus assumed; SMILES CC[C@H](C)[C@H](NC(=O)CNC)C(=O)N[C@H]1CSSC(C)(C)[C@@H](C(=O)N[C@H](C(=O)N2CCC[C@H]2C(=O)NCCOCCOCCOCCOCCOCC(=O)O)[C@@H](C)CC)NC(=O)[C@H]([C@@H](C)CC)NC(=O)[C@@H]2CCCN2C(=O)[C@@H]2CCCN2C(=O)[C@H](CC(C)(C)C)NC(=O)[C@H](CO)NC(=O)[C@H](CCCNC(=N)N)NC(=O)[C@H](CO)NC1=O) [((N-Me)G)-IC+SRS-((tBu)A)-PPI-(Pen)+IP-(PEG5-CH2CO2H(18 atoms))-OH] |
| 180 | 3 | [Sar]ICSRSLP[Oic]I[Pen]IPT-OH (disulfide 3-11; N-terminus assumed; SMILES CC[C@H](C)[C@H](NC(=O)CNC)C(=O)N[C@H]1CSSC(C)(C)[C@@H](C(=O)N[C@H](C(=O)N2CCC[C@H]2C(=O)N[C@H](C(=O)O)[C@@H](C)O)[C@@H](C)CC)NC(=O)[C@H]([C@@H](C)CC)NC(=O)[C@@H]2C[C@@H]3CCCC[C@@H]3N2C(=O)[C@@H]2CCCN2C(=O)[C@H](CC(C)C)NC(=O)[C@H](CO)NC(=O)[C@H](CCCNC(=N)N)NC(=O)[C@H](CO)NC1=O) [((N-Me)G)-IC+SRSLP-(Oic)-I-(Pen)+IPT-OH] |
| 37 | 3.4 | [Sar]ICSRSLP[Oic]I[Pen]IPG[dD]-OH (disulfide 3-11; N-terminus assumed; SMILES CC[C@H](C)[C@H](NC(=O)CNC)C(=O)N[C@H]1CSSC(C)(C)[C@@H](C(=O)N[C@H](C(=O)N2CCC[C@H]2C(=O)NCC(=O)N[C@H](CC(=O)O)C(=O)O)[C@@H](C)CC)NC(=O)[C@H]([C@@H](C)CC)NC(=O)[C@@H]2C[C@@H]3CCCC[C@@H]3N2C(=O)[C@@H]2CCCN2C(=O)[C@H](CC(C)C)NC(=O)[C@H](CO)NC(=O)[C@H](CCCNC(=N)N)NC(=O)[C@H](CO)NC1=O) [((N-Me)G)-IC+SRSLP-(Oic)-I-(Pen)+IPGd-OH] |
| 35 | 2.1 | [Sar]ICSRS[tBuAla]PPI[Pen]IP[PEG4]-OH (disulfide 3-11; N-terminus assumed; SMILES CC[C@H](C)[C@H](NC(=O)CNC)C(=O)N[C@H]1CSSC(C)(C)[C@@H](C(=O)N[C@H](C(=O)N2CCC[C@H]2C(=O)NCCOCCOCCOCCOCCC(=O)O)[C@@H](C)CC)NC(=O)[C@H]([C@@H](C)CC)NC(=O)[C@@H]2CCCN2C(=O)[C@@H]2CCCN2C(=O)[C@H](CC(C)(C)C)NC(=O)[C@H](CO)NC(=O)[C@H](CCCNC(=N)N)NC(=O)[C@H](CO)NC1=O) [((N-Me)G)-IC+SRS-((tBu)A)-PPI-(Pen)+IP-(PEG3(16atoms))-OH] |
| 32 | 3.8 | [Sar]ICSRS[tBuAla]PPI[Pen]IP[Orn]D-OH (disulfide 3-11; N-terminus assumed; SMILES CC[C@H](C)[C@H](NC(=O)CNC)C(=O)N[C@H]1CSSC(C)(C)[C@@H](C(=O)N[C@H](C(=O)N2CCC[C@H]2C(=O)N[C@@H](CCCN)C(=O)N[C@@H](CC(=O)O)C(=O)O)[C@@H](C)CC)NC(=O)[C@H]([C@@H](C)CC)NC(=O)[C@@H]2CCCN2C(=O)[C@@H]2CCCN2C(=O)[C@H](CC(C)(C)C)NC(=O)[C@H](CO)NC(=O)[C@H](CCCNC(=N)N)NC(=O)[C@H](CO)NC1=O) [((N-Me)G)-IC+SRS-((tBu)A)-PPI-(Pen)+IP-(Orn)-D-OH] |
| 21 | 19.5 | {Benzoyl(4-COOH)}-GICSRSLP[Oic]I[Pen]IPD-OH (disulfide 3-11; SMILES CC[C@H](C)[C@H](NC(=O)CNC(=O)c1ccc(C(=O)O)cc1)C(=O)N[C@H]1CSSC(C)(C)[C@@H](C(=O)N[C@H](C(=O)N2CCC[C@H]2C(=O)N[C@@H](CC(=O)O)C(=O)O)[C@@H](C)CC)NC(=O)[C@H]([C@@H](C)CC)NC(=O)[C@@H]2C[C@@H]3CCCC[C@@H]3N2C(=O)[C@@H]2CCCN2C(=O)[C@H](CC(C)C)NC(=O)[C@H](CO)NC(=O)[C@H](CCCNC(=N)N)NC(=O)[C@H](CO)NC1=O) [(4-Carboxybenzoic acid)-GIC+SRSLP-(Oic)-I-(Pen)+IPD-OH] |
| 32 | 2.4 | [X11]ICSRSLP[Oic]I[Pen]IPD-OH (disulfide 3-11; N-terminus assumed; SMILES CC[C@H](C)[C@H](NC(=O)[C@H]1CCCNC1)C(=O)N[C@H]1CSSC(C)(C)[C@@H](C(=O)N[C@H](C(=O)N2CCC[C@H]2C(=O)N[C@@H](CC(=O)O)C(=O)O)[C@@H](C)CC)NC(=O)[C@H]([C@@H](C)CC)NC(=O)[C@@H]2C[C@@H]3CCCC[C@@H]3N2C(=O)[C@@H]2CCCN2C(=O)[C@H](CC(C)C)NC(=O)[C@H](CO)NC(=O)[C@H](CCCNC(=N)N)NC(=O)[C@H](CO)NC1=O) [((S)-Piperidine-3-Carboxylic Acid)-IC+SRSLP-(Oic)-I-(Pen)+IPD-OH] |
| 84 | 2.6 | [Sar]ICSRSLP[Oic]I[Pen]IPDA-OH (disulfide 3-11; N-terminus assumed; SMILES CC[C@H](C)[C@H](NC(=O)CNC)C(=O)N[C@H]1CSSC(C)(C)[C@@H](C(=O)N[C@H](C(=O)N2CCC[C@H]2C(=O)N[C@@H](CC(=O)O)C(=O)N[C@@H](C)C(=O)O)[C@@H](C)CC)NC(=O)[C@H]([C@@H](C)CC)NC(=O)[C@@H]2C[C@@H]3CCCC[C@@H]3N2C(=O)[C@@H]2CCCN2C(=O)[C@H](CC(C)C)NC(=O)[C@H](CO)NC(=O)[C@H](CCCNC(=N)N)NC(=O)[C@H](CO)NC1=O) [((N-Me)G)-IC+SRSLP-(Oic)-I-(Pen)+IPDA-OH] |
| 43 | 58 | {Benzoyl(3-COOH)}-GICSRSLP[Oic]I[Pen]IPD-OH (disulfide 3-11; SMILES CC[C@H](C)[C@H](NC(=O)CNC(=O)c1cccc(C(=O)O)c1)C(=O)N[C@H]1CSSC(C)(C)[C@@H](C(=O)N[C@H](C(=O)N2CCC[C@H]2C(=O)N[C@@H](CC(=O)O)C(=O)O)[C@@H](C)CC)NC(=O)[C@H]([C@@H](C)CC)NC(=O)[C@@H]2C[C@@H]3CCCC[C@@H]3N2C(=O)[C@@H]2CCCN2C(=O)[C@H](CC(C)C)NC(=O)[C@H](CO)NC(=O)[C@H](CCCNC(=N)N)NC(=O)[C@H](CO)NC1=O) [(3-Carboxybenzoic acid)-GIC+SRSLP-(Oic)-I-(Pen)+IPD-OH] |
| 120 | 5.5 | [Sar]ICSRSLP[Oic]I[Pen]IPD[PEG3]-OH (disulfide 3-11; N-terminus assumed; SMILES CC[C@H](C)[C@H](NC(=O)CNC)C(=O)N[C@H]1CSSC(C)(C)[C@@H](C(=O)N[C@H](C(=O)N2CCC[C@H]2C(=O)N[C@@H](CC(=O)O)C(=O)NCCOCCOCCOCCC(=O)O)[C@@H](C)CC)NC(=O)[C@H]([C@@H](C)CC)NC(=O)[C@@H]2C[C@@H]3CCCC[C@@H]3N2C(=O)[C@@H]2CCCN2C(=O)[C@H](CC(C)C)NC(=O)[C@H](CO)NC(=O)[C@H](CCCNC(=N)N)NC(=O)[C@H](CO)NC1=O) [((N-Me)G)-IC+SRSLP-(Oic)-I-(Pen)+IPD-(PEG2(13 atoms))-OH] |
